Residue numbers refer to the chain shown, from its start.

Drawing on publication PMC7674646, “Structural and Functional Analyses of the Transcription Repressor DgoR From Escherichia coli Reveal a Divalent Metal-Containing D-Galactonate Binding Pocket” (Frontiers in Microbiology, 2020), this text covers binding for 1 sequence.

Assay in all cases: EMSA
Holding throughout (details): EMSA: 25 mM Tris-HCl pH 8.0, 50 mM KCl, 2.5 mM MgCl2, 5% glycerol, 1 mM DTT, 100 ug/mL salmon sperm DNA, 100 ng Cy5 probe in 20 ul, 25 C 20 min; native PAGE at …

The target in series [1] is T1, DgoR T191A T191A (Escherichia coli) (UniProt P31460).
T1 sequence: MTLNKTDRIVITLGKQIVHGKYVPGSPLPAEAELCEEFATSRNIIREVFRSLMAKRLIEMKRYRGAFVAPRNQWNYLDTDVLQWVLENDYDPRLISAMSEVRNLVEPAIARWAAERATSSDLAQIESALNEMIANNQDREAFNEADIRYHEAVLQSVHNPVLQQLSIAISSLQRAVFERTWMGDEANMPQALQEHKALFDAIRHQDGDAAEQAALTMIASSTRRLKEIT

Series [2] has as its target T2, DgoR Q173A Q173A (Escherichia coli) (UniProt P31460).
T2 sequence: T1 sequence with Q173A, A191T

The target in series [3] is T3, DgoR R224A R224A (Escherichia coli) (UniProt P31460).
T3 sequence: T1 sequence with A191T, R224A

Series [4] has as its target T4, DgoR R179A R179A (Escherichia coli) (UniProt P31460).
T4 sequence: T1 sequence with R179A, A191T

The target of series [5] is T5, DgoR D146A D146A (Escherichia coli) (UniProt P31460).
T5 sequence: T1 sequence with D146A, A191T

Series [6] concerns the target T6, DgoR R224E R224E (Escherichia coli) (UniProt P31460).
T6 sequence: T1 sequence with A191T, R224E

Series [7] addresses T7, DgoR W181A W181A (Escherichia coli) (UniProt P31460).
T7 sequence: T1 sequence with W181A, A191T

Series [8] addresses T8, DgoR H150A H150A (Escherichia coli) (UniProt P31460).
T8 sequence: T1 sequence with H150A, A191T

The target in series [9] is T9, DgoR (EcoDgoR) WT (Escherichia coli) (UniProt P31460).
T9 sequence: T1 sequence with A191T

Series [10] deals with T10, DgoR H195A H195A (Escherichia coli) (UniProt P31460).
T10 sequence: T1 sequence with A191T, H195A

For series [11], the target named is T11, DgoR S221A S221A (Escherichia coli) (UniProt P31460).
T11 sequence: T1 sequence with A191T, S221A

Series [12] has as its target T12, DgoR D184A D184A (Escherichia coli) (UniProt P31460).
T12 sequence: T1 sequence with D184A, A191T

In series [13] the target is T13, DgoR R102A R102A (Escherichia coli) (UniProt P31460).
T13 sequence: T1 sequence with R102A, A191T

With “TGTAAAACGACGGCCAGTGCATTGTTCTTTTTGTGATCTAAATTGTAGTACAACAATATAAGTTTGTACTACATTACACGCACGGCAAACGCGAACGTCATCACGCTGGTACTACAAAGTTGCCGCGTTATGCATCGATCGGGGTAAAGTAGAGAAGAACATACAGAGCACAAGGACTCTCCATGACTCTCAATAAAACCGATCGCATTGTC (double strand) [dgo cis-acting element (promoter region)]”, the binding entry in series [1] is “binds more weakly”; in series [2] it was “binds more weakly”; in series [3], “binds more weakly”; in [4] it was “binds”; in [5], “binds”; in series [6], “binds more weakly”. For the same sequence, the binding entry is reported as “binds” in series [7]; “binds more weakly” in [8]; “binds” in [9]; “binds more weakly” in series [10]; “binds” in series [11]; “binds more weakly” in series [12]. Besides, in series [13], the binding result was “binds more weakly”.
